# Biological target: gbrap_human GABARAP (UniProt O95166)
# Sequence (O95166 whole entry): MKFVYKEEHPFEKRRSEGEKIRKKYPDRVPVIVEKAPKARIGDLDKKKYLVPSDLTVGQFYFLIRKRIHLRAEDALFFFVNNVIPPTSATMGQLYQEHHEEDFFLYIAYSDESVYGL
row,Substance,effect of a mutation on the interaction
1,"Pericentriolar material 1 protein (Homo sapiens), Q15154 E1960K",decreasing interaction strength
2,"Pericentriolar material 1 protein (Homo sapiens), Q15154 E1960L",with no effect
3,"Pericentriolar material 1 protein (Homo sapiens), Q15154 E1960M",decreasing interaction strength
4,"Pericentriolar material 1 protein (Homo sapiens), Q15154 E1960N",with no effect
5,"Pericentriolar material 1 protein (Homo sapiens), Q15154 E1960P",with no effect
6,"Pericentriolar material 1 protein (Homo sapiens), Q15154 E1960Q",with no effect
7,"Pericentriolar material 1 protein (Homo sapiens), Q15154 E1960R",with no effect
8,"Pericentriolar material 1 protein (Homo sapiens), Q15154 E1960S",with no effect
9,"Pericentriolar material 1 protein (Homo sapiens), Q15154 E1960T",with no effect
10,"Pericentriolar material 1 protein (Homo sapiens), Q15154 E1960V",decreasing interaction strength
11,"Pericentriolar material 1 protein (Homo sapiens), Q15154 E1960W",with no effect
12,"Pericentriolar material 1 protein (Homo sapiens), Q15154 E1960Y",with no effect
13,"Pericentriolar material 1 protein (Homo sapiens), Q15154 E1961A",with no effect
14,"Pericentriolar material 1 protein (Homo sapiens), Q15154 E1961C",with no effect
15,"Pericentriolar material 1 protein (Homo sapiens), Q15154 E1961D",with no effect
16,"Pericentriolar material 1 protein (Homo sapiens), Q15154 E1961F",with no effect
17,"Pericentriolar material 1 protein (Homo sapiens), Q15154 E1961G",with no effect
18,"Pericentriolar material 1 protein (Homo sapiens), Q15154 E1961H",with no effect
19,"Pericentriolar material 1 protein (Homo sapiens), Q15154 E1961I",with no effect
20,"Pericentriolar material 1 protein (Homo sapiens), Q15154 E1961K",disrupting interaction strength
21,"Pericentriolar material 1 protein (Homo sapiens), Q15154 E1961L",with no effect

row,Substance,effect of a mutation on the interaction
1,"Pericentriolar material 1 protein (Homo sapiens), Q15154 E1961M",decreasing interaction strength
2,"Pericentriolar material 1 protein (Homo sapiens), Q15154 E1961N",with no effect
3,"Pericentriolar material 1 protein (Homo sapiens), Q15154 E1961P",decreasing interaction strength
4,"Pericentriolar material 1 protein (Homo sapiens), Q15154 E1961Q",with no effect
5,"Pericentriolar material 1 protein (Homo sapiens), Q15154 E1961R",decreasing interaction strength
6,"Pericentriolar material 1 protein (Homo sapiens), Q15154 E1961S",with no effect
7,"Pericentriolar material 1 protein (Homo sapiens), Q15154 E1961T",with no effect
8,"Pericentriolar material 1 protein (Homo sapiens), Q15154 E1961V",decreasing interaction strength
9,"Pericentriolar material 1 protein (Homo sapiens), Q15154 E1961W",with no effect
10,"Pericentriolar material 1 protein (Homo sapiens), Q15154 E1961Y",with no effect
11,"Pericentriolar material 1 protein (Homo sapiens), Q15154 E1967A",with no effect
12,"Pericentriolar material 1 protein (Homo sapiens), Q15154 E1967C",with no effect
13,"Pericentriolar material 1 protein (Homo sapiens), Q15154 E1967D",with no effect
14,"Pericentriolar material 1 protein (Homo sapiens), Q15154 E1967F",with no effect
15,"Pericentriolar material 1 protein (Homo sapiens), Q15154 E1967G",with no effect
16,"Pericentriolar material 1 protein (Homo sapiens), Q15154 E1967H",with no effect
17,"Pericentriolar material 1 protein (Homo sapiens), Q15154 E1967I",with no effect
18,"Pericentriolar material 1 protein (Homo sapiens), Q15154 E1967K",with no effect
19,"Pericentriolar material 1 protein (Homo sapiens), Q15154 E1967L",with no effect
20,"Pericentriolar material 1 protein (Homo sapiens), Q15154 E1967M",with no effect
21,"Pericentriolar material 1 protein (Homo sapiens), Q15154 E1967N",with no effect

row,Substance,effect of a mutation on the interaction
1,"Pericentriolar material 1 protein (Homo sapiens), Q15154 E1967P",with no effect
2,"Pericentriolar material 1 protein (Homo sapiens), Q15154 E1967Q",with no effect
3,"Pericentriolar material 1 protein (Homo sapiens), Q15154 E1967R",with no effect
4,"Pericentriolar material 1 protein (Homo sapiens), Q15154 E1967S",with no effect
5,"Pericentriolar material 1 protein (Homo sapiens), Q15154 E1967T",with no effect
6,"Pericentriolar material 1 protein (Homo sapiens), Q15154 E1967V",with no effect
7,"Pericentriolar material 1 protein (Homo sapiens), Q15154 E1967W",with no effect
8,"Pericentriolar material 1 protein (Homo sapiens), Q15154 E1967Y",with no effect
9,"Pericentriolar material 1 protein (Homo sapiens), Q15154 F1963A",disrupting interaction strength
10,"Pericentriolar material 1 protein (Homo sapiens), Q15154 F1963C",disrupting interaction strength
11,"Pericentriolar material 1 protein (Homo sapiens), Q15154 F1963D",disrupting interaction strength
12,"Pericentriolar material 1 protein (Homo sapiens), Q15154 F1963E",disrupting interaction strength
13,"Pericentriolar material 1 protein (Homo sapiens), Q15154 F1963G",disrupting interaction strength
14,"Pericentriolar material 1 protein (Homo sapiens), Q15154 F1963H",disrupting interaction strength
15,"Pericentriolar material 1 protein (Homo sapiens), Q15154 F1963I",disrupting interaction strength
16,"Pericentriolar material 1 protein (Homo sapiens), Q15154 F1963K",disrupting interaction strength
17,"Pericentriolar material 1 protein (Homo sapiens), Q15154 F1963L",disrupting interaction strength
18,"Pericentriolar material 1 protein (Homo sapiens), Q15154 F1963M",disrupting interaction strength
19,"Pericentriolar material 1 protein (Homo sapiens), Q15154 F1963N",disrupting interaction strength
20,"Pericentriolar material 1 protein (Homo sapiens), Q15154 F1963P",disrupting interaction strength
21,"Pericentriolar material 1 protein (Homo sapiens), Q15154 F1963Q",disrupting interaction strength
